Data published in paper PMC3227653 (2011).

B1: pepsin-treated A26.8m (VHH)
VHH: QVKLEESGGGLVQAGGSLRLSCAASERTFSRYPVAWFRQAPGAEREFVCVISSTGTSTYYADSVKGRFTCSRDNAKVTVYLQMNNLKREDTAVYFCAVNSQRTRLQDPNEYDYWGQGTQVTVSS
B2: pepsin-treated A5.1m (VHH)
VHH: QVKLEESGGGLVQAGGSLRLSCAASGRTFSMYRMGWFRQAPGKEREFVCVITRNGSSTYYADSVKGRFTCSRDNAKNTVYLQMNSLKPEDTALYYCAATSGSSYLDAAHVYDYWGQGTQVTVSS
B3: pepsin-treated A4.2m (VHH)
VHH: QVKLEESGGGLVQAGGSLRLSCAASGRTFNTLSMGWFRQAPGKEREFVCAVSRSGGSTYYADSVKGRFTCSRDNAKNTVYLQMNSLKPEDTAVYYCAAAATKSNTTAYRLSFDYWGQGTQVTVSS

target: Clostridium difficile toxin A (C. difficile, UniProt P16154 1-2710); experiment: SPR

With B1 as the binder, how does the koff read?
Its koff is 0.019 s⁻¹.

Which koff does the source give for B2 here?
Its koff is 0.013 s⁻¹.

How did the koff turn out when B3 was run?
The koff was 0.016 s⁻¹.
